How the values were obtained:
[1] = molecular target: Extra Domain B of fibronectin (EDB) (UniProt P02751); assay: SPR (BIACORE), EDB immobilized on the chip, construct as analyte
[2] = molecular target: Extra Domain B of fibronectin (EDB) (UniProt P02751); assay: BIACORE SPR, EDB immobilized on the chip, analyte at 1.56, 3.125 and 6.25 nM

Sequence of Extra Domain B of fibronectin (EDB) (P02751 1266-1356 limits assumed): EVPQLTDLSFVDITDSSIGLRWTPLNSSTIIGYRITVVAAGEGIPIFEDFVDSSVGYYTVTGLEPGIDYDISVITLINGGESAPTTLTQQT
Sequence of L19 diabody-IL2 fusion protein, 12 amino acid linker (VH): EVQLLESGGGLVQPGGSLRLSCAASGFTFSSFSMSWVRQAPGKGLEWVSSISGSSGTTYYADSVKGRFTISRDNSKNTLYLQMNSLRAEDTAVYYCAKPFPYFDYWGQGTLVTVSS
Sequence of L19 diabody-IL2 fusion protein, 12 amino acid linker (chain): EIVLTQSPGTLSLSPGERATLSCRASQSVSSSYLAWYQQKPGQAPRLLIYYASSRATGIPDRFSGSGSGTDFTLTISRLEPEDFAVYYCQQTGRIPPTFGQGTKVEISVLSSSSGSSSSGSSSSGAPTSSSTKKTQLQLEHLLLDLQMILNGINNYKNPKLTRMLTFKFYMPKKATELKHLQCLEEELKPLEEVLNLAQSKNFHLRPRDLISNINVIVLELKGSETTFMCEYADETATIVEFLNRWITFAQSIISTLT

Kd [1]: 0.36 nM
Kd [2]: 0.362 nM
koff [2]: 0.000769 s⁻¹
kon [2]: 2.13e+06 M⁻¹ s⁻¹
Substance: L19 diabody-IL2 fusion protein, 12 amino acid linker

— US20110064751A1
